Reference: US20160046707A1 (EISAI R AND D MANAGEMENT, published 2016)

Experiments:
[1] = biological target: T1, mouse CCL20-secreted alkaline phosphatase (SEAP) fusion (mouse, UniProt O89093 28-97); assay: ELISA on CCL20-SEAP, Abs 450; x axis 'ug/ml' in 4-fold steps down from 10, taken as the antibody concentration as in FIG. 11C
T1 construct: Expressed in HEK293E, used as culture supernatant; also called SEAP-tagged mouse CCL20; mCCL20; not shown: secreted alkaline phosphatase (SEAP), cDNA from pSEAP-Enhancer vector (Clontech)
T1 sequence: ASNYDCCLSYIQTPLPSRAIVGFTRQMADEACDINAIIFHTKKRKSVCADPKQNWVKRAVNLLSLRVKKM

recombinant human CXCL4 = biological target: T2, recombinant human CXCL4 (human, UniProt P02776 32-101); assay: SPR (Biacore): antibody captured on the sensor chip, free chemokine injected; concentration not shown
T2 construct: also called PF4
T2 sequence (looked up): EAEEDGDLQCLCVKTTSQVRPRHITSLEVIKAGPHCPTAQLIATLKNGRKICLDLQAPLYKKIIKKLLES

[2] = biological target: T3, human CCL20-secreted alkaline phosphatase (SEAP) fusion (human, UniProt P78556 27-96); assay: ELISA (fluorescent HRP substrate): CCL20-SEAP captured on anti-alkaline phosphatase in 5-fold dilutions from 20 nM (x axis, nM), antibody at 1 ug/ml; the text rounds this number to 62 pM
T3 construct: also called hCCL20; human CCL20-SEAP; not shown: secreted alkaline phosphatase (SEAP), cDNA from pSEAP-Enhancer vector (Clontech)
T3 sequence (P78556 27-96): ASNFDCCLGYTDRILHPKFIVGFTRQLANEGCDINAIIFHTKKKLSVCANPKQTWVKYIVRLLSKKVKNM
Description: To test whether the chimeric and humanized antibodies can bind to mouse, cynomolgus, or rhesus macaque CCL20 orthologs, we used ELISA assays as illustrated in FIG. 15. Recombinant secreted alkaline phosphatase (SEAP)-chemokine fusion proteins were engineered as described in Example 2, expressed and purified for all of the CCL20 orthologs tested. Nunc MaxiSorb flat-bottom black plates were coated with 1 μg/ml mouse anti-placental alkaline phosphatase antibody (Pierce, cat# MA1-19354) in 50 mM sodium bicarbonate, pH 9.4, overnight at 4° C. Plates were then blocked using 1× phosphate buffered saline with Tween-20 (PBST) with 5% bovine serum albumin (BSA) for 2 hours at room temperature. 20 nM SEAP-CCL20 fusion proteins were serially diluted 5-fold in Opti-MEM medium (Invitrogen). Chimeric and humanized (HC2/LC3 and HC2/LK3) antibodies were diluted to 1 μg/ml in 1×PBST with 5% BSA, added to the plates, and incubated for 1 hr at room temperature. The plates were then washed with 1×PBST with 5% BSA three times. […] QuantaBlu fluorescent HRP substrate (Pierce cat#15169) was added for detection of bound antibody by measuring fluorescence in a Molecular Devices M5 (Excitation 325 nm/Emission 420 nm) plate reader. […]

[3] = biological target: T4, cynomolgus CCL20-secreted alkaline phosphatase (SEAP) fusion (cynomolgus monkey); assay: ELISA, serially diluted CCL20-SEAP captured by anti-alkaline phosphatase antibody, antibody at 1 µg/ml; cynomolgus CCL20-SEAP
T4 construct: also called cCCL20; cynomolgus CCL20-SEAP; not shown: the SEAP reporter (cDNA from Clontech pSEAP-Enhancer) and its junction to CCL20
T4 chain: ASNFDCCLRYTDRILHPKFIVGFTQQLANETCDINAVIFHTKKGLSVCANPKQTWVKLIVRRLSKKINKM
Description: To test whether the chimeric and humanized antibodies can bind to mouse, cynomolgus, or rhesus macaque CCL20 orthologs, we used ELISA assays as illustrated in FIG. 15. Recombinant secreted alkaline phosphatase (SEAP)-chemokine fusion proteins were engineered as described in Example 2, expressed and purified for all of the CCL20 orthologs tested. Nunc MaxiSorb flat-bottom black plates were coated with 1 μg/ml mouse anti-placental alkaline phosphatase antibody (Pierce, cat# MA1-19354) in 50 mM sodium bicarbonate, pH 9.4, overnight at 4° C. Plates were then blocked using 1× phosphate buffered saline with Tween-20 (PBST) with 5% bovine serum albumin (BSA) for 2 hours at room temperature. 20 nM SEAP-CCL20 fusion proteins were serially diluted 5-fold in Opti-MEM medium (Invitrogen). Chimeric and humanized (HC2/LC3 and HC2/LK3) antibodies were diluted to 1 μg/ml in 1×PBST with 5% BSA, added to the plates, and incubated for 1 hr at room temperature. The plates were then washed with 1×PBST with 5% BSA three times. […] QuantaBlu fluorescent HRP substrate (Pierce cat#15169) was added for detection of bound antibody by measuring fluorescence in a Molecular Devices M5 (Excitation 325 nm/Emission 420 nm) plate reader.

B1: mouse anti-human CCL20 monoclonal antibody 36F7C10 (antibody, V domains shown)
VH: QVQLQQPGAELVKPGASVKMSCKASGYTFTNYWMHWVKQRPGQGLEWIGVIDPSDSYTTYNQKFKGKATLTVDTSSSTAYMQLSSLTSEDSAVYYCTRGNYGVDYAMDYWGQGTSVTVSS
VL: DIQMTQSPASLSASVGETVTITCGASENIYGALNWYQRKQGKSPQLLIYGATNLADGMSSRFSGSGSGRQYSLKISSLHPDDVATYYCQNVLITPYTFGGGTKLEIK
notes: Mouse hybridoma antibody; also called MouseMAb; parental mouse clone 36F7C10
B1: no binding (tested: 10 ug/ml) [1].

B2: chimeric 36F7C10 antibody (36F7C10-hFc) (antibody, V domains shown)
VH: B1 VH
VL: B1 VL
notes: also called chimeric 36F710; Chimeric MAb
B2: no binding (recombinant human CXCL4).

B3: humanized anti-human CCL20 antibody 36LC3/36HC2 (antibody, human IgG1, kappa, V domains shown)
VH: QVQLVQSGAEVKKPGASVKVSCKASGYTFTNYWMHWVRQAPGQGLEWMGVIDPSDSYTTYAQKFQGRVTMTVDTSTSTVYMELSSLRSEDTAVYYCARGNYGVDYAMDYWGQGTLVTVSS
VL: DIQMTQSPSSLSASVGDRVTITCRASENIYGALNWYQQKPGKAPKLLIYGATNLADGVPSRFSGSGSGRQYSLTISSLQPEDFATYYCQNVLITPYTFGGGTKLEIKR
notes: expressed in HEK293 cells; also called HC2/LC3; HC2LC3
With B3 the EC50 [2] was 0.0619 nM and the EC50 [3] was 0.34 nM.
